Among the data in the supplement of paper PMC12042874 are amyloid nucleation score values, retold here.

± gives the uncertainty stated by the source.

A short description of the series: amyloid nucleation score (Sup35N fusion, yeast selection) (log enrichment); library NNK2; higher = more nucleation; inactive = no reads after selection. An outline of the steps: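 The nucleation score is a DiMSum log enrichment of output over input reads, centred on the mode score of non-aggregating sequences. Sequences under 100 input reads were excluded, and reads came from Illumina sequencing of plasmid inserts. Psi-negative yeast expressing Sup35N fused to peptides of 20 random codons were induced with 100 μM copper sulfate for 24 hours and grown 7 days at 30°C on medium lacking adenine and uracil. Random libraries had three technical output replicates.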
Take IRIGFRMHCLVIQYMNCFIS: the amyloid nucleation score came to 2.18 ± 0.075.
The substance IRKYVAWNLRALTMAMIQQR showed an amyloid nucleation score of -0.959 ± 0.48.
Turning to IRMGRANRWEVLARWTSVVA, the amyloid nucleation score was 9.548 ± 0.079.
Next, IRNILWVLPKVVSDAFI: 0.325 ± 0.57.
As for IRRFRGLTSRSTRCSKGSKG, the amyloid nucleation score was -0.072 ± 0.45.
Turning to IRSSSSGNQSQVFSPRDNPP, the amyloid nucleation score is -0.381 ± 0.31.
On to IRVNMSVTITRGWICHRLCK, for which the amyloid nucleation score came out at 0.293 ± 0.27.
In turn, IRYDLQQGQFPPTRMECLVL displayed an amyloid nucleation score of 0.437 ± 0.27.
With ISAETPMIAFCLVPLNPRSV, the amyloid nucleation score came to 1.06 ± 0.68.
Substance ISASGVDSDEGVRPGQLMMC showed an amyloid nucleation score of 10.4 ± 0.065.
Substance ISCCDRGCDAYLEVWPKLNK returned an amyloid nucleation score of -0.523 ± 1.
For ISDGCCGMLNAYCFTLVNCK, the amyloid nucleation score was 4.18 ± 0.062.
To ISEFHGYSMFKHEARQNGCQ belongs 5.516 ± 0.033.
ISGFRPSAYWSVLNWNSSL showed an amyloid nucleation score of -1.78 ± 1.1.
Substance ISHTLHATITVLLVSNFCLS showed an amyloid nucleation score of 0.475 ± 0.43.
Next, ISLFDYGQGMFHRCFMAVKG: -0.131 ± 0.6.
The substance ISPNALEAQMPTQCNYEDGE registered an amyloid nucleation score of 0.451 ± 0.48.
Next, ISSSKRYVLKS: 0.583 ± 0.39; ITADNVKSNHKAVVMNDIHG: -0.133 ± 0.49.
As to ITAFTNRVKFWS, the amyloid nucleation score came out at 0.132 ± 0.36.
ITFMVLM registered an amyloid nucleation score of 6.6 ± 0.074.
In the case of ITIYQYTNYLYGSWCNHLML, the amyloid nucleation score came to 0.157 ± 1.
In the case of ITLTLTVCTGLCWKYGRRMW, the amyloid nucleation score was 4.49 ± 0.071.
For the substance ITMSYTLGPSCFFWSLADTY, the amyloid nucleation score is 8.218 ± 0.065.
As to ITSHVDAAVEFPNVSFSHGV, the amyloid nucleation score came out at 1.37 ± 0.47.
On to ITSLCYNVREFFWGRYVSRV, for which the amyloid nucleation score result is “inactive”.
ITTHMCYVFMWREIRAKDVD showed an amyloid nucleation score of 0.484 ± 0.8.
For the substance ITVFAGFLRCCYLCFLDNHS, the amyloid nucleation score result was “inactive”.
In turn, IVAEMW came in with an amyloid nucleation score of 1.75 ± 0.4.
Turning to IVCLYKKCLLCGLHLVVSIV, the amyloid nucleation score was -0.608 ± 0.53.
For IVDGEKYDLVWMFEGHG, the amyloid nucleation score is -0.536 ± 0.39.
To IVDKVGHRVYEFVIYLTEDG belongs “inactive”; to IVDSIFTFGTRVDGWLGDCA, -0.259 ± 0.32; to IVFFVSWLIKCKPWFLVVNM, “inactive”.
To IVFLCSRKCNVNMYGL belongs 10.7 ± 0.071.
Next, IVISWIPDNPNQMDALCRRY: 0.912 ± 0.34; IVKYLVCEQTKILCMMCTCD: 8.891 ± 0.068; IVNLARLKCSMCRECCGRVL: 2.64 ± 0.12.
Turning to IVQLVIAVTGMFLYWNYAFL, the amyloid nucleation score was -0.461 ± 0.43.
For the substance IVRNPKLMLSNGH, the amyloid nucleation score stood at 0.907 ± 0.58.
IVSIFSWTEIRATLG gave an amyloid nucleation score of -1.87 ± 0.55.
To IVSLLLRQSQ belongs 4.41 ± 0.061; to IVSTV, 0.655 ± 0.49; to IVVKFCWCVGQSRYTGMSTN, 6.71 ± 0.052.
Next, IWFRIQVCEIPSLIQTIVRR: -0.064 ± 0.32.
Next, IWGGKDLFGGQDWNTLSYLP: -0.283 ± 0.6.
On to IWHSVWYP, for which the amyloid nucleation score was -0.318 ± 0.76.
IWIKVTRLRVGFLKRVLVVA had an amyloid nucleation score of -1.44 ± 0.55.
To IWNWRQYLYVLGADRFSYMC belongs 4.19 ± 0.049.
Substance IWPMEWNCTMDYRSPWMRHR returned an amyloid nucleation score of 2.06 ± 0.07.
For the substance IWTDVRLGGRDIVLDSRVYF, the amyloid nucleation score came out at 2.14 ± 0.098.
With IWTSRQTTIEAITRAHNPST, the amyloid nucleation score worked out at 3.83 ± 0.084.
IYCLATVMDMICVYGWICAW gave an amyloid nucleation score of 0.049 ± 0.34.
Regarding IYFKIIQDKFQTRMCSNKSW, the amyloid nucleation score entry is “inactive”.
In turn, IYIWCARHEILWYRNGWGRG came in with an amyloid nucleation score of 0.2 ± 0.36.
For the substance IYNLWYGISPSVMGGLGFLR, the amyloid nucleation score stood at 3.82 ± 0.062.
In turn, IYNVSQLRTGTDMFNL returned an amyloid nucleation score of 0.721 ± 0.51.
Substance IYPLWLMKSGIRLLCGKMCL came in with an amyloid nucleation score of 0.607 ± 0.34.
To IYSEWLSLVYSLGAPVTLNS belongs -0.015 ± 0.46; to IYSYYGCYLCRNCGLVKFSK, 4.03 ± 0.07; to IYTLP, “inactive”.
To IYVECWRHRLILCIHA belongs 0.214 ± 0.49; to IYVPIGATQ, -1.26 ± 0.78; to IYYDVFSVSCTFVKLGWIFL, 1.96 ± 0.077.
With IYYNGFVQCGLLIEGLITSY, the amyloid nucleation score was 2.39 ± 0.092.
Substance KAANVAEDSR registered an amyloid nucleation score of 0.978 ± 0.47.
KARLIAITHLPRYYWSFGVL returned an amyloid nucleation score of 0.388 ± 0.62.
Turning to KASHSVTRSLSVAYI, the amyloid nucleation score is -0.714 ± 0.38.
To KAYLH belongs -0.427 ± 0.78; to KCMRFIL, -0.087 ± 1.
Substance KCPRVPNLVS gave an amyloid nucleation score of 0.407 ± 0.43.
In the case of KCRHFCRCETCTRYDPVHIL, the amyloid nucleation score stood at 1 ± 0.53.
With KCRISAMICDKAIFRVKRAC, the amyloid nucleation score was 1.13 ± 0.4.
With KCVGYW, the amyloid nucleation score stood at 0.811 ± 0.57.
Take KCVRTTVLHNRRVPDGLTMP: the amyloid nucleation score turned out to be 0.678 ± 0.33.
KCWNRYKHSDDIYGVGFPSI displayed an amyloid nucleation score of -1.09 ± 1.
As for KDFVG, the amyloid nucleation score is 2.62 ± 0.11.
On to KDKGKNDRAIAWVLWGICVL, for which the amyloid nucleation score worked out at 0.51 ± 0.51.
Next, KDKGVCSQLYRDLVWRDEVF: -0.035 ± 0.31.
The substance KDTRVVYVPSFYLWNLDAVK yielded an amyloid nucleation score of -0.551 ± 0.61.
For KDVTVNIRWTLIQLLYHTNF, the amyloid nucleation score was 4.08 ± 0.11.
Substance KDYPLAGSLVTKL had an amyloid nucleation score of 0.317 ± 0.62.
Take KECRYID: the amyloid nucleation score result was “inactive”.
The substance KEHGMESRPSWLTFSIYLVG displayed an amyloid nucleation score of 0.428 ± 0.56.
Next, KFHGSVNGMFPAREITRDLR: 0.316 ± 0.23; KFKFKESGFEVVSLGGMVTP: “inactive”.
The substance KFLHKQVFNFHVSGMNPMAS yielded an amyloid nucleation score of 5.75 ± 0.069.
With KFRCASWLCRSTKAWRRCGA, the amyloid nucleation score is 4.75 ± 0.049.
Substance KFRCHGR gave an amyloid nucleation score of 0.785 ± 0.62.
Turning to KFRMDGGFILNVVHKQHNMV, the amyloid nucleation score came out at 0.023 ± 0.8.
In the case of KFWDLC, the amyloid nucleation score was 0.047 ± 0.45.
KGFEIFSSFTLYV showed an amyloid nucleation score of -0.684 ± 0.55.
Next, KGFNKY: -0.911 ± 0.43; KGKDS: -0.037 ± 0.39; KGNAVVSWDRS: 2.36 ± 0.1.
The substance KGRGCRFLMLYYRVYMFRGS yielded an amyloid nucleation score of 0.471 ± 0.5.
As for KGRYSGEGEIAFLQRVVGSG, the amyloid nucleation score came to 0.434 ± 0.41.
Next, KGSEPLYGLCIIMV: 0.851 ± 0.8; KHIFFLREVVNYFMRRTKGL: -0.507 ± 0.64; KHRWII: -0.287 ± 0.3.
For the substance KHSRMYLR, the amyloid nucleation score came out at 1.49 ± 0.17.
As for KIDSICRYRGPINQLNINPF, the amyloid nucleation score was determined as 0.417 ± 0.4.
The substance KIFFKNDGAGSVWPSNKLYF yielded an amyloid nucleation score of -1.29 ± 1.
KIISNSFCSPCINSILPSKM came in with an amyloid nucleation score of 6.826 ± 0.053.
KILDWRGWSRGSGPLTSSTW gave an amyloid nucleation score of 1.04 ± 0.38.
The substance KIRTNALYLL returned an amyloid nucleation score of -0.298 ± 0.29.
As for KITRWLCYIFTTLL, the amyloid nucleation score is -1.7 ± 1.1.
KIVGCGHSRMLIMTWC registered an amyloid nucleation score of 0.733 ± 0.56.
As to KKERPNMSWGDHY, the amyloid nucleation score was -0.78 ± 1.
Take KKEVHLSRVYITETYVVGEG: the amyloid nucleation score was -0.052 ± 0.63.
As for KKVRNC, the amyloid nucleation score is 0.436 ± 0.8.
Next, KLCKF: 3.27 ± 0.073.
KLGRCRRKFMLYGCNLVQSR came in with an amyloid nucleation score of -0.133 ± 0.33.
KLGTLLSFPTVINVANMIQI showed an amyloid nucleation score of 3.8 ± 0.081.
Substance KLMYLKLK came in with an amyloid nucleation score of -0.038 ± 1.1.
KLPAVNLVVMREWKALRFGV: the amyloid nucleation score is -0.48 ± 0.33.
Next, KLPLFTSMCCTGHFPPITPP: 0.409 ± 0.8; KLQSCCIF: 6.23 ± 0.084; KLRVFPLKESVSQGALQTVG: -0.476 ± 0.44.
Substance KLVGMPFSSVACNSFKHRSE came in with an amyloid nucleation score of 0.408 ± 0.16.
In turn, KLVTYVPSNKTNCHDDDGTY had an amyloid nucleation score of -0.678 ± 0.56.
For KLYFCYLEI, the amyloid nucleation score is -1.25 ± 1.1.
As for KMAIGLCVSTLQ, the amyloid nucleation score was found to be 0.333 ± 0.42.
With KMDTRSRLKQWKRFFIHIPK, the amyloid nucleation score is -0.92 ± 0.49.
Turning to KMLCYMYVVTHNVTLRHRLY, the amyloid nucleation score was 0.196 ± 0.42.
KMLSWP registered an amyloid nucleation score of -0.412 ± 1.1.
For the substance KNDLRSSGWTAGSGISLEEG, the amyloid nucleation score was -0.365 ± 0.76.
Next, KNSGSMIRWIFIRGSTTIEK: “inactive”.
Regarding KPIVITLLLSDCVRM, the amyloid nucleation score turned out to be 9.498 ± 0.026.
To KRAMPLSLTSRRLWISSGTG belongs -0.708 ± 1.1; to KRHMVSS, 1.72 ± 0.42; to KRKFRMWSQNIFLKVGNILA, -1.47 ± 0.55.
KRKKQKFAMLYVSGNLLRRD: the amyloid nucleation score worked out at 0.234 ± 0.28.
KRNLVCAISFLDSRSCRRTA showed an amyloid nucleation score of 0.119 ± 0.24.
KRNRQMSFRMVSLTRNTSPH showed an amyloid nucleation score of 0.792 ± 0.53.
As for KRSCDQVCLLSRLIGQAGEW, the amyloid nucleation score is 2.26 ± 0.1.
For the substance KRVFKLSESTTRVIMWGRYS, the amyloid nucleation score result is “inactive”.
KRYLWTGN: the amyloid nucleation score was -0.534 ± 0.35.
On to KSCDIL, for which the amyloid nucleation score is -0.335 ± 0.79.
As for KSCSEV, the amyloid nucleation score is -0.047 ± 0.35.
